This is an account of results in the supplement of paper PMC9112550, “Optimization of the antimicrobial peptide Bac7 by deep mutational scanning” (BMC Biology, 2022).
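Also: peptides expressed intracellularly from a pBAD plasmid library in pooled LB shake-flask culture, induced with 0.3% L-arabinose, DNA abundance read by NGS, three biological replicates, DESeq2 with apeglm shrinkage.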

The data set has as its system Escherichia coli TOP10. Kind of data set: shrunken log2 fold change of peptide-encoding DNA abundance (4.5 h post-induction vs induction); higher = less antimicrobial activity (less host growth inhibition). The conditions noted are these: time post-induction: 4.5 h; library: site-saturation at positions 5, 18, 19, 20.
RRIRWRPPRLPRPRPRPNMHPRP: the “shrunken log2 fold change” value is -0.00977. RRIRQRPPRLPRPRPRPHWPPRP: the “shrunken log2 fold change” value was -0.0715. Then RRIRFRPPRLPRPRPRPDDEPRP, with 0.066; and RRIRPRPPRLPRPRPRPYRGPRP, with 0.153; and RRIRWRPPRLPRPRPRPESRPRP, with 0.323. Take RRIRIRPPRLPRPRPRPPPLPRP: the “shrunken log2 fold change” value stood at 0.302. Next, RRIRRRPPRLPRPRPRPVVHPRP: -0.157; RRIRIRPPRLPRPRPRPCCLPRP: -0.478. Next, RRIRARPPRLPRPRPRPLTRPRP: 0.284; RRIRPRPPRLPRPRPRPPEPPRP: 0.787; RRIRLRPPRLPRPRPRPIHRPRP: -0.163. Then RRIRKRPPRLPRPRPRPSCNPRP, with 0.149; and RRIRIRPPRLPRPRPRPFMSPRP, with -0.308.

With RRIRERPPRLPRPRPRPSCNPRP, the “shrunken log2 fold change” value is -0.0433. RRIRIRPPRLPRPRPRPAIEPRP: the “shrunken log2 fold change” value is -0.0797. Next, RRIRYRPPRLPRPRPRPWIDPRP: -0.274. Then RRIRNRPPRLPRPRPRPVTAPRP, with -0.248; and RRIRNRPPRLPRPRPRPRNPPRP, with 0.0944. Next, RRIRYRPPRLPRPRPRPFGLPRP: -0.282; RRIRNRPPRLPRPRPRPFNQPRP: -0.408; RRIRTRPPRLPRPRPRPPIDPRP: -0.231. Turning to RRIRKRPPRLPRPRPRPNASPRP, the “shrunken log2 fold change” value was 0.236.

For the sequence RRIRTRPPRLPRPRPRPTHMPRP, the “shrunken log2 fold change” value was -0.0271. Then RRIRTRPPRLPRPRPRPRCRPRP, with 0.158; and RRIRLRPPRLPRPRPRPHSAPRP, with -0.202.

Turning to RRIRRRPPRLPRPRPRPKDPPRP, the “shrunken log2 fold change” value turned out to be 0.121. Then RRIRDRPPRLPRPRPRPIRPPRP, with -0.0136. Next, RRIRFRPPRLPRPRPRPLHLPRP: -0.166; RRIRTRPPRLPRPRPRPWHTPRP: -0.0217.

With RRIRIRPPRLPRPRPRPHCCPRP, the “shrunken log2 fold change” value was -0.642.

With RRIRHRPPRLPRPRPRPAGVPRP, the “shrunken log2 fold change” value is 0.141. Next, RRIRGRPPRLPRPRPRPMKVPRP: -0.0224. Then RRIRYRPPRLPRPRPRPGKCPRP, with -0.264. Then RRIRARPPRLPRPRPRPPCVPRP, with 0.342; and RRIRGRPPRLPRPRPRPGDDPRP, with 0.911.

For the sequence RRIRFRPPRLPRPRPRPTQTPRP, the “shrunken log2 fold change” value was -0.199.

Take RRIRKRPPRLPRPRPRPFLWPRP: the “shrunken log2 fold change” value was -0.119. In the case of RRIRFRPPRLPRPRPRPHHAPRP, the “shrunken log2 fold change” value is -0.291. Next, RRIRFRPPRLPRPRPRPTWNPRP: -0.166; RRIRWRPPRLPRPRPRPECWPRP: 1.29; RRIRVRPPRLPRPRPRPAVRPRP: 0.123. Then RRIRQRPPRLPRPRPRPHWKPRP, with -0.0878; and RRIRYRPPRLPRPRPRPILPPRP, with 0.00451.

RRIRPRPPRLPRPRPRPVHKPRP: the “shrunken log2 fold change” value is -0.0637. Next, RRIRWRPPRLPRPRPRPDPGPRP: -0.041; RRIRFRPPRLPRPRPRPNDMPRP: -0.388. Next, RRIRRRPPRLPRPRPRPKKDPRP: 0.176; RRIRFRPPRLPRPRPRPCYRPRP: -0.573; RRIRNRPPRLPRPRPRPNRVPRP: -0.0281. With RRIRFRPPRLPRPRPRPAAGPRP, the “shrunken log2 fold change” value turned out to be 0.333. Then RRIRARPPRLPRPRPRPFDPPRP, with 0.0109. As for RRIRPRPPRLPRPRPRPGPAPRP, the “shrunken log2 fold change” value came out at 0.51. Next, RRIRERPPRLPRPRPRPCINPRP: -0.0818; RRIRTRPPRLPRPRPRPYNKPRP: -1.03; RRIRMRPPRLPRPRPRPHEEPRP: 0.053.

Take RRIRLRPPRLPRPRPRPPYSPRP: the “shrunken log2 fold change” value was -0.125. As for RRIRLRPPRLPRPRPRPPDMPRP, the “shrunken log2 fold change” value was -0.111.

For RRIRTRPPRLPRPRPRPDWDPRP, the “shrunken log2 fold change” value is 0.223.

With RRIRGRPPRLPRPRPRPCKYPRP, the “shrunken log2 fold change” value is -0.533. Then RRIRNRPPRLPRPRPRPMGGPRP, with 0.0264. Then RRIRMRPPRLPRPRPRPFWTPRP, with 0.0652; and RRIRNRPPRLPRPRPRPYTTPRP, with -0.83.

In the case of RRIRPRPPRLPRPRPRPINYPRP, the “shrunken log2 fold change” value was -0.402. Then RRIRMRPPRLPRPRPRPAYFPRP, with -0.197. Next, RRIRRRPPRLPRPRPRPTWIPRP: 0.53. In the case of RRIRNRPPRLPRPRPRPTHVPRP, the “shrunken log2 fold change” value is 0.216. Then RRIRARPPRLPRPRPRPHHVPRP, with -0.0499; and RRIRHRPPRLPRPRPRPQLFPRP, with -0.172; and RRIRARPPRLPRPRPRPNHIPRP, with -0.8. Next, RRIRNRPPRLPRPRPRPPNCPRP: 0.00301.

As to RRIRCRPPRLPRPRPRPTIAPRP, the “shrunken log2 fold change” value is -0.211. Consider RRIRHRPPRLPRPRPRPTPTPRP, for which the “shrunken log2 fold change” value stood at 0.138. RRIRSRPPRLPRPRPRPLHNPRP: the “shrunken log2 fold change” value was -0.198. On to RRIRNRPPRLPRPRPRPDSTPRP, for which the “shrunken log2 fold change” value is -0.028.

With RRIRERPPRLPRPRPRPYAIPRP, the “shrunken log2 fold change” value was -0.52. On to RRIRLRPPRLPRPRPRPSCCPRP, for which the “shrunken log2 fold change” value was -0.212.

Take RRIRSRPPRLPRPRPRPFAVPRP: the “shrunken log2 fold change” value is -0.113. Next, RRIRFRPPRLPRPRPRPEAFPRP: 1.82. In the case of RRIRNRPPRLPRPRPRPNQIPRP, the “shrunken log2 fold change” value was -0.319. Then RRIRGRPPRLPRPRPRPHKYPRP, with -0.216; and RRIRWRPPRLPRPRPRPPVYPRP, with -0.0994; and RRIRMRPPRLPRPRPRPHILPRP, with 0.113. Next, RRIRCRPPRLPRPRPRPRWQPRP: 0.0261; RRIRERPPRLPRPRPRPMEHPRP: 0.0106. Next, RRIRQRPPRLPRPRPRPMFVPRP: 0.493; RRIRKRPPRLPRPRPRPPRHPRP: 1.04; RRIRCRPPRLPRPRPRPSKDPRP: -0.361. Take RRIRLRPPRLPRPRPRPEFMPRP: the “shrunken log2 fold change” value was -0.109. Next, RRIRGRPPRLPRPRPRPRNIPRP: 0.0648; RRIRERPPRLPRPRPRPDWQPRP: -0.552. Take RRIRTRPPRLPRPRPRPYYPPRP: the “shrunken log2 fold change” value is -0.335. RRIRSRPPRLPRPRPRPHCWPRP: the “shrunken log2 fold change” value is -0.0424.

Regarding RRIRPRPPRLPRPRPRPNYQPRP, the “shrunken log2 fold change” value was -0.293.

For the sequence RRIRARPPRLPRPRPRPGRMPRP, the “shrunken log2 fold change” value was 0.237. Then RRIRVRPPRLPRPRPRPTSDPRP, with 0.431; and RRIRDRPPRLPRPRPRPKMFPRP, with 0.00408; and RRIRDRPPRLPRPRPRPWFVPRP, with -0.18.

As to RRIRHRPPRLPRPRPRPYEYPRP, the “shrunken log2 fold change” value was -0.4.

For the sequence RRIRDRPPRLPRPRPRPNRKPRP, the “shrunken log2 fold change” value was -0.355. Next, RRIRCRPPRLPRPRPRPPAMPRP: 0.241; RRIRSRPPRLPRPRPRPCCAPRP: 0.115; RRIRNRPPRLPRPRPRPGNSPRP: -0.0208. Then RRIRLRPPRLPRPRPRPSGSPRP, with 0.182; and RRIRHRPPRLPRPRPRPKWDPRP, with -0.00576. Next, RRIRFRPPRLPRPRPRPHALPRP: -0.222. RRIRIRPPRLPRPRPRPCQAPRP: the “shrunken log2 fold change” value is -0.025. Then RRIRMRPPRLPRPRPRPGTFPRP, with -0.0326; and RRIRFRPPRLPRPRPRPIDQPRP, with -0.296. For the sequence RRIRYRPPRLPRPRPRPFTFPRP, the “shrunken log2 fold change” value is -1.08. Then RRIRWRPPRLPRPRPRPQKGPRP, with -0.214; and RRIRARPPRLPRPRPRPCTCPRP, with -0.199; and RRIRSRPPRLPRPRPRPTCPPRP, with 0.0454. Next, RRIRLRPPRLPRPRPRPVKSPRP: -0.075; RRIRARPPRLPRPRPRPASVPRP: 0.261.

For the sequence RRIRWRPPRLPRPRPRPITQPRP, the “shrunken log2 fold change” value was -0.0367.

Regarding RRIRRRPPRLPRPRPRPMNCPRP, the “shrunken log2 fold change” value is -0.0277. For RRIRYRPPRLPRPRPRPSSPPRP, the “shrunken log2 fold change” value is -0.631. Next, RRIRIRPPRLPRPRPRPICDPRP: -0.412; RRIRNRPPRLPRPRPRPAEFPRP: 0.0274. Next, RRIRIRPPRLPRPRPRPSHEPRP: -0.159; RRIRDRPPRLPRPRPRPHYMPRP: -0.231; RRIRVRPPRLPRPRPRPPLEPRP: 0.431.

With RRIRSRPPRLPRPRPRPQDIPRP, the “shrunken log2 fold change” value is -0.296. On to RRIRDRPPRLPRPRPRPRENPRP, for which the “shrunken log2 fold change” value was 0.415.

As for RRIRQRPPRLPRPRPRPKEFPRP, the “shrunken log2 fold change” value was 0.0639.
